Source: the RNAGym collection of RNA variant scans (doi:10.1073/pnas.2313332121)

B1: TPR t1 (parent)
chain: GACCAAUCUGCCCUCAGAGCUCGAGAACAUCUUCGGAUGCAGAGGAGGCAGGCUUCGGUGGCGCGAUAGCGCCAACGUCCUCAACCUCCAAUGCAUCCCACCACAUGAUGAUGCCUGAAGAGCCUUGGUUUUUUG

Variants of: B1
Experiment: polymerase ribozyme fitness, log enrichment relative to wild type (log ratio); higher = more active; in vitro selection for triplet polymerase activity
Method in brief: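 One round of in vitro selection, in triplicate, was applied to PCR-built, transcribed mutant libraries of each subunit of a heterodimeric triplet polymerase ribozyme. The steps were annealing with a biotinylated primer, partner subunit and triplets, incubation frozen at −7 °C, gel excision of extended constructs, streptavidin-bead capture and RT-PCR. Fitness is the logarithm, base 2, of genotype enrichment over wild-type enrichment from inverse-variance-weighted replicate averages of Illumina-sequenced inputs and outputs, keeping genotypes with ≥10 input reads and ≥1 read per output.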

Compared with C22U C89A, C22U A46U G69U G117A is higher in “polymerase ribozyme fitness (log ratio)” value: -4.83 for the first, -4.33 for the second.

Going from A24G G51U to G25A G47A A100G U112G C123U, the “polymerase ribozyme fitness (log ratio)” value falls from -4.9 to -6.98.

First: A24G U59G
Second: C22U C76A
The “polymerase ribozyme fitness (log ratio)” value of the first is higher: -1.69 for the first, -3.53 for the second.

C22G G61A C62U C104U G120A and C22U U38C U78C are within 0.2 log units of each other in “polymerase ribozyme fitness (log ratio)” value: -4.48 for the first, -4.58 for the second.

First: G23C
Second: G23A
The “polymerase ribozyme fitness (log ratio)” value of the first is lower: -6.4 for the first, -4.43 for the second.

Going from G23U to G23U U112G, the “polymerase ribozyme fitness (log ratio)” value rises from -6.05 to -5.53.

Going from C22U G52C to G23U C73A, the “polymerase ribozyme fitness (log ratio)” value falls from -4.83 to -6.12.

Compared with C22G G57A G63A C101A A105U, G23A C124A is higher in “polymerase ribozyme fitness (log ratio)” value: -6.73 for the first, -1.95 for the second.

Going from A24G U55A U130A to C22U G57U, the “polymerase ribozyme fitness (log ratio)” value falls from -1.66 to -4.03.

First: C22U G63U C82U C124G U126A
Second: G23A G69A U78C G117C
The “polymerase ribozyme fitness (log ratio)” value of the first is higher: -3.87 for the first, -6.47 for the second.

C22G G69A C124A and C22U C56U are within 0.2 log units of each other in “polymerase ribozyme fitness (log ratio)” value: -3.93 for the first, -3.77 for the second.

Compared with C22G U54A, G23U G117A is lower in “polymerase ribozyme fitness (log ratio)” value: -3.16 for the first, -6.33 for the second.

First: A24G C62A A74C G120C
Second: G25C A111U
The “polymerase ribozyme fitness (log ratio)” value of the first is higher: -4.13 for the first, -6.92 for the second.

Compared with C22U U55G C72A U106A, A24G C28G G48U C64U is lower in “polymerase ribozyme fitness (log ratio)” value: -3.49 for the first, -6.05 for the second.

First: G25A U33A G61A G77U C115A
Second: G23A G60A
The “polymerase ribozyme fitness (log ratio)” value of the first is lower: -6.46 for the first, -4.52 for the second.

C22G G69A C79A and G23U C53U are within 0.2 log units of each other in “polymerase ribozyme fitness (log ratio)” value: -5.64 for the first, -5.67 for the second.

First: A24G A29U G47A A74G U87A U109G
Second: G23C C123U
The “polymerase ribozyme fitness (log ratio)” value of the first is lower: -6.31 for the first, -5.53 for the second.

A24G C73U C88U C101U and C22G G60C C104A A121U are within 0.2 log units of each other in “polymerase ribozyme fitness (log ratio)” value: -2.26 for the first, -2.34 for the second.

First: C22U C72U
Second: A24G G52A A91G
The “polymerase ribozyme fitness (log ratio)” value of the first is lower: -3.69 for the first, -3.17 for the second.

First: C22U A26U A27U A41C G71C C82G A111C A118U G127C
Second: C22G G35C
The “polymerase ribozyme fitness (log ratio)” value of the first is lower: -6.27 for the first, -5.43 for the second.

Compared with A24G G36C C49A G71U, A24G C64U U96G A111C is higher in “polymerase ribozyme fitness (log ratio)” value: -3.84 for the first, -3.27 for the second.

Compared with A24G C56A G60U A83C U133A, A24G C56U U125G is higher in “polymerase ribozyme fitness (log ratio)” value: -2.54 for the first, -2.02 for the second.

Going from C22G U55G G60U C62G U78C to G25A C70U, the “polymerase ribozyme fitness (log ratio)” value falls from -5.09 to -5.76.

Going from C22U C82A A84C G93C U112C to A24G C123G, the “polymerase ribozyme fitness (log ratio)” value rises from -4.92 to -0.893.

First: G25A C80A U92A U112A
Second: C22U C53A C72U A95G C104A
The “polymerase ribozyme fitness (log ratio)” value of the first is lower: -6.66 for the first, -4.54 for the second.

First: C22U G44C C56U
Second: C22G U131A
The “polymerase ribozyme fitness (log ratio)” value of the first is lower: -4.25 for the first, -3.47 for the second.

Going from A24C C102U to G25A A41U, the “polymerase ribozyme fitness (log ratio)” value rises from -6.73 to -5.8.

Going from C22G C53U G57C U78C C104A C124G to G25A C123A, the “polymerase ribozyme fitness (log ratio)” value falls from -1.59 to -6.12.

First: A24G C98U C101A
Second: G23A G63C C101U A111G
The “polymerase ribozyme fitness (log ratio)” value of the first is higher: -4.13 for the first, -6.12 for the second.

First: C22G C56U C104A
Second: C22G C56A C79A
The “polymerase ribozyme fitness (log ratio)” value of the first is higher: -2.51 for the first, -4.99 for the second.

Compared with G23U C70G A91C C98U, G23A A46C C124A is higher in “polymerase ribozyme fitness (log ratio)” value: -7.47 for the first, -5.92 for the second.

First: A24G C86U
Second: A24G C86G
The “polymerase ribozyme fitness (log ratio)” value of the first is higher: -2.07 for the first, -2.33 for the second.

Going from G25A G71U to G23U G48U C62A C64A C86U C99A G117U, the “polymerase ribozyme fitness (log ratio)” value falls from -6.24 to -7.32.

Compared with G25A C72U C124A, A24G C86G C99U C114G is lower in “polymerase ribozyme fitness (log ratio)” value: -6.83 for the first, -7.76 for the second.

First: G23A G113C
Second: C22U C123A
The “polymerase ribozyme fitness (log ratio)” value of the first is lower: -5.19 for the first, -3.4 for the second.

Going from C22G C114A to C22G C114U, the “polymerase ribozyme fitness (log ratio)” value falls from -3.01 to -3.43.

Compared with C22G C53U C70A G120A G128U, C22G G63U is higher in “polymerase ribozyme fitness (log ratio)” value: -4.71 for the first, -4.31 for the second.

First: G25A C49U
Second: G25A U96A
The “polymerase ribozyme fitness (log ratio)” value of the first is lower: -6.96 for the first, -5.41 for the second.

Going from G23C A37G C40A G45A G57A C114A A118U to G23U C123A, the “polymerase ribozyme fitness (log ratio)” value rises from -7.04 to -5.92.

Going from G23A C70U to G23A C70A, the “polymerase ribozyme fitness (log ratio)” value rises from -4.99 to -4.2.

Compared with C22U C40U G57U, A24G G57A is higher in “polymerase ribozyme fitness (log ratio)” value: -5.18 for the first, -2.62 for the second.

With C22U G113C the “polymerase ribozyme fitness (log ratio)” value was -6.59.
